Results taken from patent US5756665A, “Peptide isolated from micrococcus varians and use thereof” (priority 1995, dated 1998).

Assays:
Type in all cases: cell-based
[1] = test system: strain Lactococcus lactis which produces lacticin 481; assay: Inhibition spectrum test on the lacticin 481 producer
[2] = test system: Lactobacillus helveticus (N 2); assay: Inactivation by enzymes, agar well test
[3] = test system: Lactobacillus helveticus (N 2); assay: Resistance to pH, agar well test; conditions: pH 2 to 10
[4] = test system: Lactobacillus helveticus (N 2); assay: Resistance to heat, agar well test; conditions: 60 min incubation at 100 °C
[5] = test system: Lactobacillus helveticus (N 2); assay: Resistance to heat and to pH, agar well test; conditions: pH 4 or 7 combined with elevated temperature
[6] = test system: Gram-negative bacteria; assay: Inhibition spectrum, summary for Gram-negative bacteria; conditions: summary of Table V
Source text: The inhibition spectrum of the supernatant is thus determined.

| Substance | growth of the lacticin 481-producing strain in the presence of the bacteriocin [1] | influence of catalase on bactericidal activity ([2]; Tables I and II, two indicator strains) | effect of proteolytic enzymes on bactericidal activity ([2]; all proteolytic enzymes of Tables I and II) | pH dependence of bactericidal activity [3] | bactericidal activity after heat [4] | bactericidal activity after heat and pH [5] | inhibitory effect on the growth of Gram-negative bacteria [6] |
| --- | --- | --- | --- | --- | --- | --- | --- |
| lacticin 481 | immune | – | – | – | – | – | – |
| variacin: bacteriocin from Micrococcus varians strains CNCM I-1586 and CNCM I-1587, amino acid sequence SEQ ID NO:1, 2659 daltons (GSGVIPTISHECHMNSFQFVFTCCS) | – | not found to exert any influence | suppress the bactericidal activity | not pH-dependent | not compromised | not compromised | does not exert any inhibitory effect |
